We go through 27 molecules from article PMC10786891, “Massively parallel profiling of RNA-targeting CRISPR-Cas13d”.

To fix the notation:
T1: EsCas13d, nuclease-dead (Eubacterium siraeum, UniProt B0MS50, R295A;H300A;R849A;H854A)
T1 sequence: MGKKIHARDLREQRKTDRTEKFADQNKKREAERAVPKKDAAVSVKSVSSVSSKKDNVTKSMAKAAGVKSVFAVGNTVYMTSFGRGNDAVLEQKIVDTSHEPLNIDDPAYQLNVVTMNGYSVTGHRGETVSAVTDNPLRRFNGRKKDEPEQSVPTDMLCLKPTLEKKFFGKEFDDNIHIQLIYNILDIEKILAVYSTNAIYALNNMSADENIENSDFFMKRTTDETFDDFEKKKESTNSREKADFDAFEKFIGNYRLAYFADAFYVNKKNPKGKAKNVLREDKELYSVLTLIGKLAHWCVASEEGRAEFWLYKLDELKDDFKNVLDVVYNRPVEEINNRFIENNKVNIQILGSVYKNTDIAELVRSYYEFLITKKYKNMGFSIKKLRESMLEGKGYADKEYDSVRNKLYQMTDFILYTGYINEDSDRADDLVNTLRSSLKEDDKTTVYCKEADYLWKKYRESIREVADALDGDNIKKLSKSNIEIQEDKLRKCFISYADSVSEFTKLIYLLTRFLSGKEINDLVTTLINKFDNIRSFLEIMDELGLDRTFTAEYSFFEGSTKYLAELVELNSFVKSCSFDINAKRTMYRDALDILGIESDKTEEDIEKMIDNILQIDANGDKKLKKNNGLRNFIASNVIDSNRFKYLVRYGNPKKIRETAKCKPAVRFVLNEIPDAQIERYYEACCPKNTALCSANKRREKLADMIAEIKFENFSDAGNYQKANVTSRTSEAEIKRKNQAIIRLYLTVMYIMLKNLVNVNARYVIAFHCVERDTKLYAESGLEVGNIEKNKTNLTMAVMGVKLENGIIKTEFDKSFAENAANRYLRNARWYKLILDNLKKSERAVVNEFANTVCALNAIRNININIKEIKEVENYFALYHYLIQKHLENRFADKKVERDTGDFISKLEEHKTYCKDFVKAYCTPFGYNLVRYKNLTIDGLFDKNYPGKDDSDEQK

B1: target 1 MT 5'PFS GGA 3'PFS ACU (mixed)
RNA 1: CACCCGUGCAAAAAUGCAGGGGUCUAAAACUGAGCGGAUAACCUCUCUAUGG
RNA 2: GGGAAUGGAUCCACAUCUACGAAUUCGGACCAUAGAGAGGUUAUCCGCUCAACUAGAUCGGAAGAGCACACGU
B2: target 1 MT 5'PFS UCC 3'PFS AUG (mixed)
RNA 1: CACCCGUGCAAAAAUGCAGGGGUCUAAAACUGAGCGGAUAACCUCUCUAUGG
RNA 2: GGGAAUGGAUCCACAUCUACGAAUUCUCCCCAUAGAGAGGUUAUCCGCUCAAUGAGAUCGGAAGAGCACACGU
B3: target 1 MT 5'PFS ACU 3'PFS CUA (mixed)
RNA 1: CACCCGUGCAAAAAUGCAGGGGUCUAAAACUGAGCGGAUAACCUCUCUAUGG
RNA 2: GGGAAUGGAUCCACAUCUACGAAUUCACUCCAUAGAGAGGUUAUCCGCUCACUAAGAUCGGAAGAGCACACGU
B4: target 1 MT 5'PFS GGA 3'PFS CAG (mixed)
RNA 1: CACCCGUGCAAAAAUGCAGGGGUCUAAAACUGAGCGGAUAACCUCUCUAUGG
RNA 2: GGGAAUGGAUCCACAUCUACGAAUUCGGACCAUAGAGAGGUUAUCCGCUCACAGAGAUCGGAAGAGCACACGU
B5: target 1 MT 5'PFS UUG 3'PFS UAU (mixed)
RNA 1: CACCCGUGCAAAAAUGCAGGGGUCUAAAACUGAGCGGAUAACCUCUCUAUGG
RNA 2: GGGAAUGGAUCCACAUCUACGAAUUCUUGCCAUAGAGAGGUUAUCCGCUCAUAUAGAUCGGAAGAGCACACGU
B6: target 1 MT 5'PFS CUC 3'PFS UUG (mixed)
RNA 1: CACCCGUGCAAAAAUGCAGGGGUCUAAAACUGAGCGGAUAACCUCUCUAUGG
RNA 2: GGGAAUGGAUCCACAUCUACGAAUUCCUCCCAUAGAGAGGUUAUCCGCUCAUUGAGAUCGGAAGAGCACACGU
B7: target 1 U19G,A20C (mixed)
RNA 1: CACCCGUGCAAAAAUGCAGGGGUCUAAAACUGAGCGGAUAACCUCUCUAUGG
RNA 2: GGGAAUGGAUCCACAUCUACGAAUUCGUACCCGAGAGAGGUUAUCCGCUCACCGAGAUCGGAAGAGCACACGU
B8: target 1 MT 5'PFS UUG 3'PFS UAG (mixed)
RNA 1: CACCCGUGCAAAAAUGCAGGGGUCUAAAACUGAGCGGAUAACCUCUCUAUGG
RNA 2: GGGAAUGGAUCCACAUCUACGAAUUCUUGCCAUAGAGAGGUUAUCCGCUCAUAGAGAUCGGAAGAGCACACGU
B9: target 1 MT 5'PFS GGA 3'PFS CAC (mixed)
RNA 1: CACCCGUGCAAAAAUGCAGGGGUCUAAAACUGAGCGGAUAACCUCUCUAUGG
RNA 2: GGGAAUGGAUCCACAUCUACGAAUUCGGACCAUAGAGAGGUUAUCCGCUCACACAGAUCGGAAGAGCACACGU
B10: target 1 MT 5'PFS GGA 3'PFS ACA (mixed)
RNA 1: CACCCGUGCAAAAAUGCAGGGGUCUAAAACUGAGCGGAUAACCUCUCUAUGG
RNA 2: GGGAAUGGAUCCACAUCUACGAAUUCGGACCAUAGAGAGGUUAUCCGCUCAACAAGAUCGGAAGAGCACACGU
B11: target 1 MT 5'PFS GGA 3'PFS CAA (mixed)
RNA 1: CACCCGUGCAAAAAUGCAGGGGUCUAAAACUGAGCGGAUAACCUCUCUAUGG
RNA 2: GGGAAUGGAUCCACAUCUACGAAUUCGGACCAUAGAGAGGUUAUCCGCUCACAAAGAUCGGAAGAGCACACGU
B12: target 1 MT 5'PFS UGU 3'PFS UCA (mixed)
RNA 1: CACCCGUGCAAAAAUGCAGGGGUCUAAAACUGAGCGGAUAACCUCUCUAUGG
RNA 2: GGGAAUGGAUCCACAUCUACGAAUUCUGUCCAUAGAGAGGUUAUCCGCUCAUCAAGAUCGGAAGAGCACACGU
B13: target 1 MT 5'PFS UGU 3'PFS UCG (mixed)
RNA 1: CACCCGUGCAAAAAUGCAGGGGUCUAAAACUGAGCGGAUAACCUCUCUAUGG
RNA 2: GGGAAUGGAUCCACAUCUACGAAUUCUGUCCAUAGAGAGGUUAUCCGCUCAUCGAGAUCGGAAGAGCACACGU
B14: target 1 MT 5'PFS UGU 3'PFS UCU (mixed)
RNA 1: CACCCGUGCAAAAAUGCAGGGGUCUAAAACUGAGCGGAUAACCUCUCUAUGG
RNA 2: GGGAAUGGAUCCACAUCUACGAAUUCUGUCCAUAGAGAGGUUAUCCGCUCAUCUAGAUCGGAAGAGCACACGU
B15: target 1 MT 5'PFS UGU 3'PFS UCC (mixed)
RNA 1: CACCCGUGCAAAAAUGCAGGGGUCUAAAACUGAGCGGAUAACCUCUCUAUGG
RNA 2: GGGAAUGGAUCCACAUCUACGAAUUCUGUCCAUAGAGAGGUUAUCCGCUCAUCCAGAUCGGAAGAGCACACGU
B16: target 1 MT 5'PFS UUG 3'PFS UAC (mixed)
RNA 1: CACCCGUGCAAAAAUGCAGGGGUCUAAAACUGAGCGGAUAACCUCUCUAUGG
RNA 2: GGGAAUGGAUCCACAUCUACGAAUUCUUGCCAUAGAGAGGUUAUCCGCUCAUACAGAUCGGAAGAGCACACGU
B17: target 1 insC 3' of 11,insA 3' of 11 (mixed)
RNA 1: CACCCGUGCAAAAAUGCAGGGGUCUAAAACUGAGCGGAUAACCUCUCUAUGG
RNA 2: GGGAAUGGAUCCACAUCUACGAAUUCGUACCAUAGAGAGGUCAUAUCCGCUCACCGAGAUCGGAAGAGCACACGU
B18: target 1 MT 5'PFS UCC 3'PFS AUA (mixed)
RNA 1: CACCCGUGCAAAAAUGCAGGGGUCUAAAACUGAGCGGAUAACCUCUCUAUGG
RNA 2: GGGAAUGGAUCCACAUCUACGAAUUCUCCCCAUAGAGAGGUUAUCCGCUCAAUAAGAUCGGAAGAGCACACGU
B19: target 1 MT 5'PFS CAA 3'PFS UUA (mixed)
RNA 1: CACCCGUGCAAAAAUGCAGGGGUCUAAAACUGAGCGGAUAACCUCUCUAUGG
RNA 2: GGGAAUGGAUCCACAUCUACGAAUUCCAACCAUAGAGAGGUUAUCCGCUCAUUAAGAUCGGAAGAGCACACGU
B20: target 1 MT 5'PFS CUU 3'PFS AUA (mixed)
RNA 1: CACCCGUGCAAAAAUGCAGGGGUCUAAAACUGAGCGGAUAACCUCUCUAUGG
RNA 2: GGGAAUGGAUCCACAUCUACGAAUUCCUUCCAUAGAGAGGUUAUCCGCUCAAUAAGAUCGGAAGAGCACACGU
B21: target 1 MT 5'PFS GGA 3'PFS ACG (mixed)
RNA 1: CACCCGUGCAAAAAUGCAGGGGUCUAAAACUGAGCGGAUAACCUCUCUAUGG
RNA 2: GGGAAUGGAUCCACAUCUACGAAUUCGGACCAUAGAGAGGUUAUCCGCUCAACGAGAUCGGAAGAGCACACGU
B22: target 1 MT 5'PFS UCC 3'PFS AUC (mixed)
RNA 1: CACCCGUGCAAAAAUGCAGGGGUCUAAAACUGAGCGGAUAACCUCUCUAUGG
RNA 2: GGGAAUGGAUCCACAUCUACGAAUUCUCCCCAUAGAGAGGUUAUCCGCUCAAUCAGAUCGGAAGAGCACACGU
B23: target 1 MT 5'PFS ACU 3'PFS CUU (mixed)
RNA 1: CACCCGUGCAAAAAUGCAGGGGUCUAAAACUGAGCGGAUAACCUCUCUAUGG
RNA 2: GGGAAUGGAUCCACAUCUACGAAUUCACUCCAUAGAGAGGUUAUCCGCUCACUUAGAUCGGAAGAGCACACGU
B24: target 1 MT 5'PFS CAU 3'PFS AUA (mixed)
RNA 1: CACCCGUGCAAAAAUGCAGGGGUCUAAAACUGAGCGGAUAACCUCUCUAUGG
RNA 2: GGGAAUGGAUCCACAUCUACGAAUUCCAUCCAUAGAGAGGUUAUCCGCUCAAUAAGAUCGGAAGAGCACACGU
B25: target 1 MT 5'PFS GGA 3'PFS ACC (mixed)
RNA 1: CACCCGUGCAAAAAUGCAGGGGUCUAAAACUGAGCGGAUAACCUCUCUAUGG
RNA 2: GGGAAUGGAUCCACAUCUACGAAUUCGGACCAUAGAGAGGUUAUCCGCUCAACCAGAUCGGAAGAGCACACGU
B26: target 1 MT 5'PFS CUC 3'PFS CCU (mixed)
RNA 1: CACCCGUGCAAAAAUGCAGGGGUCUAAAACUGAGCGGAUAACCUCUCUAUGG
RNA 2: GGGAAUGGAUCCACAUCUACGAAUUCCUCCCAUAGAGAGGUUAUCCGCUCACCUAGAUCGGAAGAGCACACGU
B27: target 1 insU 3' of 17,insU 3' of 12 (mixed)
RNA 1: CACCCGUGCAAAAAUGCAGGGGUCUAAAACUGAGCGGAUAACCUCUCUAUGG
RNA 2: GGGAAUGGAUCCACAUCUACGAAUUCGUACCAUAGUAGAGGUUUAUCCGCUCACCGAGAUCGGAAGAGCACACGU

The data set addresses T1, EsCas13d, nuclease-dead. Briefly: crRNA (strand 1, pre-loaded); Mg2+; 40 mM Tris-HCl pH 7.5, 150 mM NaCl, 6 mM MgCl2, 1 mM DTT, 0.1% Tween-20, 0.2 mg/ml BSA; 25 C; 10 min per concentration, then washed. Particulars: tags: His6-TwinStrep-SUMO cleaved; N-terminal SNAP kept (SNAP-Surface 488); label: 3' end held by stalled T7 RNA polymerase.
For orientation: Kd means the equilibrium constant for the complex coming apart. In turn, B1 gave a Kd of 15.8 ± 2.95 nM.

As for B2, the Kd is 39 ± 17 nM.

The molecule B3 gave a Kd of about 34.5 nM. Take B4: binding was put at a Kd of 24.5 ± 5 nM. On to B5, for which the dissociation constant Kd worked out at 16.9 ± 2.45 nM. For the molecule B6, the Kd was about 105 nM. In the case of B7 it was 80 ± 40 nM. In the case of B8 it was 47.5 ± 10.5 nM. Molecule B9 had a Kd of 35.5 ± 15 nM. The molecule B10 showed a Kd of 27 ± 5 nM. The molecule B11 yielded a Kd of 52 ± 16 nM.

As to B12, the Kd is 47.5 ± 13 nM. Then B13, with 61 ± 20.5 nM; and B14, with 28.5 ± 6.5 nM. As for B15, the Kd worked out at 39 ± 10.5 nM. In the case of B16 it was 42.5 ± 13.5 nM. For the molecule B17, the Kd came out at 21.4 ± 1 nM. Molecule B18 returned a Kd of 13.7 ± 5.05 nM. The molecule B19 came in with a Kd of 7.25 ± 2 nM. In turn, B20 showed a Kd of about 50.5 nM. With B21, the Kd was found to be 20.5 ± 4 nM. The molecule B22 showed a dissociation constant Kd of 43.5 ± 17.5 nM. B23: the dissociation constant (Kd) stood at 38 ± 13 nM. Then B24, with about 70 nM; and B25, with 27.3 ± 7.15 nM. As for B26, the Kd is about 40 nM. B27 gave a Kd of 16.4 ± 3.2 nM.
